Where no end group is shown, it is not given here. The star is where a group is joined. For = O=C*
T1: FPR-like receptor 1 (FPRL1) on transfected human embryonic kidney 293 cells (FPRL1/293 cells) (human, UniProt P25090 1-351)
T1 sequence: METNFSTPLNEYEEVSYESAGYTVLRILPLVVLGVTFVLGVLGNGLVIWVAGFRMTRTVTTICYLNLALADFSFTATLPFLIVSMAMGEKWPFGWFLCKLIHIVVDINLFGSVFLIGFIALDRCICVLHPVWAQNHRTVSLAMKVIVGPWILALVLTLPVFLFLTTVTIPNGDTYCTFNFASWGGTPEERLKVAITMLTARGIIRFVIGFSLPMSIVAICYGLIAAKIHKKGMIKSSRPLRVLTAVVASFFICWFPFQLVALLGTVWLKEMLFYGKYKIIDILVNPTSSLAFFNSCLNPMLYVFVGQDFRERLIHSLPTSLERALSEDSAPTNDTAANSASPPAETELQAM

T2: epitope tagged N-formyl peptide receptor (FPR) on ETFR cells (stably transfected rat basophilic leukemia … (human, UniProt P21462 1-350))
T2 sequence: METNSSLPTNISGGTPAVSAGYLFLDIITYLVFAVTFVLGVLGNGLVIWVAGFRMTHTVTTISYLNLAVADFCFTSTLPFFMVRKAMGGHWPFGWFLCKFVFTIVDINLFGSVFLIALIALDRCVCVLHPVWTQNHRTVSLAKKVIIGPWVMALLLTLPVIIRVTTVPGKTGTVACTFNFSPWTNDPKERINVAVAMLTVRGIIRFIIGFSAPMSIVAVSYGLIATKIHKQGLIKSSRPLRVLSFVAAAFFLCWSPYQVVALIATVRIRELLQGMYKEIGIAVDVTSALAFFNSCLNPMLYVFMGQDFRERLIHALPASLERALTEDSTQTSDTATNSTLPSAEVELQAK

B1: T21/DP107 (peptide)
peptide: NNLLRAIEAQQHLLQLTVWGIKQLQARILAVERYLKDQ
modifications: also: some embodiments acylated, form not given here
B2: N-formyl-methionyl-leucyl-phenylalanine (fMLP) (peptide)
peptide: For-Met-Leu-Phe
modifications: also: tritiated (3H) form used as tracer

Tests used:
[1] = target: epitope tagged N-formyl peptide receptor (FPR) on ETFR cells (stably transfected rat basophilic leukemia cells) (human) (UniProt P21462); test: cell-based or functional assay
[2] = target: epitope tagged N-formyl peptide receptor (FPR) on ETFR cells (stably transfected rat basophilic leukemia cells) (human) (UniProt P21462); test: competition of unlabeled fMLP with ^3H-fMLP for binding to FPR expressing ETFR cells, filtration, 20 min at 37 C
[3] = target: T1, FPR-like receptor 1 (FPRL1) on …; test: cell-based or functional assay
[4] = target: T2, epitope tagged N-formyl peptide …; test: cell-based or functional assay

Molecule	EC50 of migration of ETFR cells (chemotaxis) [1]	concentration required to induce a change in the ratio of 2 at 340/380 nm fluorescence (Ca^++) in FPR expressing cells [1]	IC50 [2]	EC50 of migration of FPRL1/293 cells (chemotaxis) [3]	concentration required to induce a change in the ratio of 0.6 at 340/380 nm fluorescence (Ca^++) in FPRL1/293 cells [3]	concentration required to induce a change in the ratio of 2 at 340/380 nm fluorescence (Ca^++) in FPR expressing cells [4]	excess of fMLP needed to desensitize the Ca^++ flux induced by T21/DP107 in FPRL1/293 cells [3]
N-formyl-methionyl-leucyl-phenylalanine (fMLP) (peptide)	0.5 nM	1e-10	1 nM				
B1				50 nM	5e-07	1e-05	
B2					5e-05		1000 fold

— patent US20030203841A1 (US Dept. of Health and Human Services, published 2003)
